Target: T1, recombinant GST-tagged HSC70 (wild type) (human, UniProt P11142-1 1-646)
T1 construct: HSC70, human HSPA8 cDNA in pGEX-6P-1; also called GST-HSC70; GST-HSC70 WT; source: BL21-Rosetta E. coli, purified (Glutathione Sepharose 4 Fast Flow, eluted with reduced glutathione)
Test: pull-down; Strep-tagged CSN held on Streptactin Sepharose, HSC70 at a 1:5 ratio, room temperature; with or without 5 µM NR peptide; Coomassie or immunoblot
Settings: both partners purified

T1 sequence (P11142 whole entry): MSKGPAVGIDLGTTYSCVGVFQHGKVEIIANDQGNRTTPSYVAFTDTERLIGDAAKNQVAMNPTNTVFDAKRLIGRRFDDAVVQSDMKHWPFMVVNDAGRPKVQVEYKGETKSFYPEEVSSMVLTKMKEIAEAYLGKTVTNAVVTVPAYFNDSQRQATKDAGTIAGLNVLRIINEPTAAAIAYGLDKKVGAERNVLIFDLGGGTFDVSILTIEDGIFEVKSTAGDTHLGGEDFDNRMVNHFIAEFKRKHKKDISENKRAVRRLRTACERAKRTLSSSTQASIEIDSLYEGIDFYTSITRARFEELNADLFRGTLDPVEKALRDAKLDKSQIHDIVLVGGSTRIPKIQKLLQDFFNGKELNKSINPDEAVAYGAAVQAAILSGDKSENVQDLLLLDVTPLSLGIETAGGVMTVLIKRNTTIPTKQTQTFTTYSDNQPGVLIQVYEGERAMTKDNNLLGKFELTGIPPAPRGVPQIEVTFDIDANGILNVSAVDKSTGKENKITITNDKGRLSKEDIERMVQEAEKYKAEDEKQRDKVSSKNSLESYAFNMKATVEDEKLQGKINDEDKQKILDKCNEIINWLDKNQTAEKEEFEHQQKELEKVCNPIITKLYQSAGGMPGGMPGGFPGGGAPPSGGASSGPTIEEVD

B1: NR peptide (an HSC70 model substrate) (peptide)
peptide: NRLLLTGC
notes: NR peptide, HSC70 model substrate (Xu et al, 2012)
binding result: binds
